Results as given in patent US20080032921A1.
Read-outs that look alike come from different tables or passages of the source.

Columns and labels:
[1] = biological target: purified HLA-DR DRB1*0401 (human); assay: competition with 125I-labelled reference peptide, purified HLA
[2] = biological target: purified HLA-DR DRB1*0802 (human); assay: as above
[3] = biological target: purified HLA-DR DRB1*1501 (human); assay: as above
[4] = biological target: purified HLA-DR DRB1*1101 (human); assay: as above
[5] = biological target: purified HLA-DR DRB1*0701 (human); assay: as above
[6] = biological target: purified HLA-DR DRB1*0405 (human); assay: as above
[7] = biological target: purified HLA-DR DRB1*0404 (human); assay: as above
[8] = biological target: purified HLA-DR DRB1*0101 (human); assay: as above
[9] = biological target: purified HLA-DR DRB5*0101 (human); assay: as above
[10] = biological target: purified HLA-DR DRB4*0101 (human); assay: as above
HLA-DR DRB1*0405 (human) [11] = biological target: HLA-DR DRB1*0405 (human)
HLA-DR DRB1*0401 (human) [12] = biological target: HLA-DR DRB1*0401 (human)
HLA-DR DRB1*0101 (human) [13] = biological target: HLA-DR DRB1*0101 (human)
HLA-DR DRB1*0404 (human) [14] = biological target: HLA-DR DRB1*0404 (human)
HLA-DR DRB1*1302 (human) [15] = biological target: HLA-DR DRB1*1302 (human)
HLA-DR DRB1*0301 (human) [16] = assay: competition vs 125I-labeled peptide, purified HLA
HLA-DR DRB1*0405 (human) [17] = assay: competition with 125I-labelled reference peptide on purified HLA-DR
HLA-DR DRB1*0401 (human) [18] = assay: as above
HLA-DR DRB1*0301 (human) [19] = assay: as above
HLA-DR DRB1*0701 (human) [20] = assay: as above
HLA-DR DRB1*0101 (human) [21] = assay: as above
HLA-DR DRB1*1501 (human) [22] = assay: as above
HLA-DR DRB1*0404 (human) [23] = assay: as above
HLA-DR DRB1*1101 (human) [24] = assay: as above
HLA-DR DRB1*1302 (human) [25] = assay: as above
[26] = biological target: purified HLA DRB1*0401 (human); assay: competition with 125I-labelled peptide for purified HLA
[27] = biological target: purified HLA DRB1*1302 (human); assay: as above
[28] = biological target: purified HLA DRB1*0301 (human); assay: as above
[29] = biological target: purified HLA DRB1*1501 (human); assay: as above
[30] = biological target: purified HLA DRB1*0404 (human); assay: as above
[31] = biological target: purified HLA DRB1*0405 (human); assay: as above
[32] = biological target: purified HLA DRB1*1101 (human); assay: as above
[33] = biological target: purified HLA DRB1*0701 (human); assay: as above
[34] = biological target: purified HLA DRB1*0101 (human); assay: as above
[35] = biological target: purified HLA DRB1*0401 (human); assay: competitive inhibition of 125I-labeled peptide binding to purified HLA
[36] = biological target: purified HLA DRB1*1302 (human); assay: as above
[37] = biological target: purified HLA DRB1*0301 (human); assay: as above
[38] = biological target: purified HLA DRB1*1501 (human); assay: as above
[39] = biological target: purified HLA DRB1*0404 (human); assay: as above
[40] = biological target: purified HLA DRB1*0405 (human); assay: as above
[41] = biological target: purified HLA DRB1*1101 (human); assay: as above
[42] = biological target: purified HLA DRB1*0701 (human); assay: as above
[43] = biological target: purified HLA DRB4*0101 (human); assay: as above
[44] = biological target: purified HLA DRB1*0802 (human); assay: as above
[45] = biological target: purified HLA DRB1*0101 (human); assay: as above
[46] = biological target: purified HLA DRB5*0101 (human); assay: as above
HLA-DR DRB1*0405 (human) [47] = assay: competition with 125I-labelled peptide, purified HLA
HLA-DR DRB1*0401 (human) [48] = assay: as above
HLA-DR DRB1*0301 (human) [49] = assay: as above
HLA-DR DRB5*0101 (human) = assay: as above
HLA-DR DRB1*0701 (human) [50] = assay: as above
HLA-DR DRB1*0101 (human) [51] = assay: as above
HLA-DR DRB1*1501 (human) [52] = assay: as above
HLA-DR DRB1*0404 (human) [53] = assay: as above
HLA-DR DRB1*1101 (human) [54] = assay: as above
HLA-DR DRB1*0802 (human) = assay: as above
HLA-DR DRB1*0901 (human) = assay: as above
HLA-DR DRB4*0101 (human) [55] = assay: as above
HLA-DR DRB1*1302 (human) [56] = assay: as above
HLA-DR DRB1*0401 (human) [57] = assay: competition assay, purified HLA, inhibition of 125I-labelled reference peptide
HLA-DR DRB1*0101 (human) [58] = assay: as above
HLA-DR DRB1*1501 (human) [59] = assay: as above
HLA-DR DRB4*0101 (human) [60] = assay: as above
HLA-DR DRB1*1302 (human) [61] = assay: as above

ESAVLRGFLILGKED (modifications not checked) [Flu.PB2.690]
IC50 [1]: 13.2 µM
IC50 [2]: 0.803 µM
IC50 [3]: 0.039 µM
IC50 [4]: 1.03 µM
IC50 [5]: 2.47 µM
IC50 [6]: 7.1 µM
IC50 [7]: 0.11 µM
IC50 [8]: 0.0084 µM
IC50 [9]: 0.303 µM
IC50 [10]: 1.28 µM

CEQIADSQHRSHRQM (modifications not checked) [Flu.M1.154]
IC50 (HLA-DR DRB1*0405 (human) [11]): > 10 µM
IC50 (HLA-DR DRB1*0401 (human) [12]): > 10 µM
IC50 (HLA-DR DRB1*0101 (human) [13]): > 10 µM
IC50 (HLA-DR DRB1*0404 (human) [14]): > 10 µM
IC50 (HLA-DR DRB1*1302 (human) [15]): > 10 µM
IC50 (HLA-DR DRB1*0301 (human) [16]): 0.804 µM

YIQMCTELKLSDYEG (modifications not checked) [Flu.NP.43 peptide …]
IC50 (HLA-DR DRB1*0405 (human) [17]): 2.69 µM
IC50 (HLA-DR DRB1*0401 (human) [18]): 0.392 µM
IC50 (HLA-DR DRB1*0301 (human) [19]): 0.368 µM
IC50 (HLA-DR DRB1*0701 (human) [20]): 5.37 µM
IC50 (HLA-DR DRB1*0101 (human) [21]): 0.32 µM
IC50 (HLA-DR DRB1*1501 (human) [22]): 0.594 µM
IC50 (HLA-DR DRB1*0404 (human) [23]): 1.64 µM
IC50 (HLA-DR DRB1*1101 (human) [24]): 5.84 µM
IC50 (HLA-DR DRB1*1302 (human) [25]): 15.4 µM
IC50 [26]: 0.392 µM
IC50 [27]: 15.4 µM
IC50 [28]: 0.368 µM
IC50 [29]: 0.594 µM
IC50 [30]: 1.64 µM
IC50 [31]: 2.69 µM
IC50 [32]: 5.84 µM
IC50 [33]: 5.37 µM
IC50 [34]: 0.32 µM

RREVHIYYLEKANKI (modifications not checked) [Flu.PA.127 peptide …]
IC50 [35]: 0.063 µM
IC50 [36]: 0.15 µM
IC50 [37]: > 10 µM
IC50 [38]: 0.0045 µM
IC50 [39]: 0.181 µM
IC50 [40]: 1.49 µM
IC50 [41]: 0.096 µM
IC50 [42]: 0.023 µM
IC50 [43]: 0.005 µM
IC50 [44]: 0.095 µM
IC50 [45]: 0.034 µM
IC50 [46]: 0.025 µM

SLMLQIGNMISIWVSHS (modifications not checked) [Flu.NA.21]
IC50 (HLA-DR DRB1*0405 (human) [47]): 0.066 µM
IC50 (HLA-DR DRB1*0401 (human) [48]): 0.005 µM
IC50 (HLA-DR DRB1*0301 (human) [49]): 0.441 µM
IC50 (HLA-DR DRB5*0101 (human)): 0.024 µM
IC50 (HLA-DR DRB1*0701 (human) [50]): 0.013 µM
IC50 (HLA-DR DRB1*0101 (human) [51]): 0.008 µM
IC50 (HLA-DR DRB1*1501 (human) [52]): 0.008 µM
IC50 (HLA-DR DRB1*0404 (human) [53]): 0.003 µM
IC50 (HLA-DR DRB1*1101 (human) [54]): 0.083 µM
IC50 (HLA-DR DRB1*0802 (human)): 0.089 µM
IC50 (HLA-DR DRB1*0901 (human)): 0.086 µM
IC50 (HLA-DR DRB4*0101 (human) [55]): 0.008 µM
IC50 (HLA-DR DRB1*1302 (human) [56]): 0.01 µM

DILMRMSKMQLGSSS (modifications not checked) [Flu.NS2.87]
IC50 (HLA-DR DRB1*0401 (human) [57]): 0.717 µM
IC50 (HLA-DR DRB1*0101 (human) [58]): 2.14 µM
IC50 (HLA-DR DRB1*1501 (human) [59]): 0.748 µM
IC50 (HLA-DR DRB4*0101 (human) [60]): 0.011 µM
IC50 (HLA-DR DRB1*1302 (human) [61]): 0.423 µM

VMRMGDLHSLQNRNG (modifications not checked) [Flu.NS2.125]
IC50 (HLA-DR DRB1*0401 (human) [57]): 0.448 µM
IC50 (HLA-DR DRB1*0101 (human) [58]): 0.249 µM
IC50 (HLA-DR DRB1*1501 (human) [59]): 0.372 µM
IC50 (HLA-DR DRB4*0101 (human) [60]): 8.82 µM
IC50 (HLA-DR DRB1*1302 (human) [61]): 1.37 µM
